Experimental data published in patent publication US20250340613A1 (JOINT STOCK COMPANY BIOCAD, published 2025).

Tests used:
[1] = target: T1, hAng2_H6F, Angiopoietin-2 (Homo sapiens) aa 19-496 (Homo sapiens, UniProt O15123 19-496); experiment: BLI Octet RED 384; antibody on ProA sensor, antigen 30 ug/ml (510.2 nM); response at end of association
T1 construct: also called hAng-H6F; not shown: His and FLAG tags implied by the name 'H6F'
T1 sequence: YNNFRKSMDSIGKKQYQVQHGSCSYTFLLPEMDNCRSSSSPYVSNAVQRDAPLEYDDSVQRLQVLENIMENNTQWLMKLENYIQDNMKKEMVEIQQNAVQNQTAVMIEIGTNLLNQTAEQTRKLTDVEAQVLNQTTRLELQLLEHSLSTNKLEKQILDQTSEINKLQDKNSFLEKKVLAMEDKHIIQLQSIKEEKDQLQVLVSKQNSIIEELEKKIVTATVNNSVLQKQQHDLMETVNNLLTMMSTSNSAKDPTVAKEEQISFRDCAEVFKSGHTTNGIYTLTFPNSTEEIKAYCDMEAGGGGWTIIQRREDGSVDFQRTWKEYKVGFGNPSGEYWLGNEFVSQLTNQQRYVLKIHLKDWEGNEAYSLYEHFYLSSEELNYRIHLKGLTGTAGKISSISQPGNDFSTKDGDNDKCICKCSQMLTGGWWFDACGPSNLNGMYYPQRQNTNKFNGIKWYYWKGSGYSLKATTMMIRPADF
Procedure: (§1) Experimental study of nonspecific binding of bispecific chimeric antibodies to non-target antigens was performed on Forte Bio Octert RED 384. Protein A (ProA) biosensors (ForteBio) were immersed into a solution containing antibodies at a concentration of 10 μg/ml for 150 seconds to immobilize same. The baseline was recorded in a 1×KB solution for 30 seconds. The antibody-loaded sensors were then immersed into wells containing non-target antigens at a concentration of 30 μg/ml for 150 seconds. Complex dissociation was then recorded for 30 seconds.
(§2) The reference sensors went through all the steps as the sensors used to record analyte sensograms did, with the exception of the association step—at the association step, the sensors were immersed in a kinetic buffer solution without analyte (the reference sensor signals were measured in parallel with the recording of the main sensograms). The reference signal was subtracted from the signal received on sensors interacting with the analyte during the processing of sensograms.
(§3) Sensograms were processed using ForteBio Octet Data Analysisn 9.0 software. To report no non-specific interaction, the recorded signal level was checked at the end of the association step (the response parameter).

[2] = target: T2, hIL4R-His, Interleukin-4 receptor subunit alpha (Homo sapiens) aa 27-227 (Homo sapiens, UniProt P24394 27-227); experiment: BLI Octet RED 384; antibody on ProA sensor, antigen 30 ug/ml (1154 nM); response at end of association
T2 construct: range 27-227; not shown: His tag as the name implies
T2 sequence (looked up): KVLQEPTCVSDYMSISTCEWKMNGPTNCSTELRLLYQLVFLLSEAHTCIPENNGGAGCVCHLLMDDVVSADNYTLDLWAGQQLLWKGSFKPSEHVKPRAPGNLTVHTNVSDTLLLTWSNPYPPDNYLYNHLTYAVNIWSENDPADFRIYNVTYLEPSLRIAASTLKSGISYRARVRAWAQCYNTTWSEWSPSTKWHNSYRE
Procedure: as §1, §2, §3

[3] = target: T3, IL5R-His, Interleukin-5 receptor subunit alpha (Homo sapiens) aa 22-342 (Homo sapiens, UniProt Q01344 22-342); experiment: BLI Octet RED 384; antibody on ProA sensor, antigen 30 ug/ml
T3 construct: not shown: His tag as the name implies
T3 sequence (looked up): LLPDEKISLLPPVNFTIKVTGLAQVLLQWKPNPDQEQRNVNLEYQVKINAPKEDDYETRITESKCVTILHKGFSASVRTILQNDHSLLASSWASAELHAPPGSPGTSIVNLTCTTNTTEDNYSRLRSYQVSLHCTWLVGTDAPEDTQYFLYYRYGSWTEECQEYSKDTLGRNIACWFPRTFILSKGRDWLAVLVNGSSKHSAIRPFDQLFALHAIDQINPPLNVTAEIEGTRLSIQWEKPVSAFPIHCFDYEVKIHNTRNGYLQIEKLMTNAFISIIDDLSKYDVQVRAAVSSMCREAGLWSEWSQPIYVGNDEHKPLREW

[4] = target: T4, C-Avi-His-TEVs-HSA_hBCMA, Tumor necrosis factor receptor superfamily member 17 (Homo sapiens) aa 1-54 (Homo sapiens, UniProt Q02223 1-54); experiment: as above
T4 construct: range 1-54; not shown: Avi, His, TEV site and HSA parts as the name implies
T4 sequence (looked up): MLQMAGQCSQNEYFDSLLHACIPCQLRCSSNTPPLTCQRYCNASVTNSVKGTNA

[5] = target: T5, biotinylated peptide [NH2]…JQS[CH2CH2]biotin comprising a fragment of the human CD20 sequence (human, [NH2] at the N-terminus; [CH2CH2]biotin at the C-terminus; the letter J at position 20 is printed so and is not a standard residue code); experiment: BLI Octet RED 384; biotinylated peptide on SAX sensor, antibody in solution; 1:1 global fit
T5 construct: also called CD20 peptide
T5 sequence (peptide, as listed by the source): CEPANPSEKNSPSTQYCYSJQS
Procedure: In the case of the biotinylated CD20 peptide, the peptide at a concentration of 5 μg/ml was immobilized on the surface of SAX sensors (High Precision Streptavidin (SAX) biosensors, ForteBio) for 120 seconds. The baseline was recorded in a 1×KB solution for 120 seconds. The sensors containing the loaded peptide were immersed into wells containing the antibody solution (analyte) in 1×KB for 15 seconds. Measurements were carried out for solutions with analyte (antibodies in the case of CD20 peptide) at concentrations of 150 μg/ml, 75 μg/ml, 37.5 μg/ml. Complex dissociation was recorded in 1×KB for 120 seconds.
All measurements were carried out at 30° C., orbital mixing speed was 1,000 revolutions per minute.
To obtain numerical values of kinetic constants (kₒₙ is the on/association rate constant, kdis is the dissociation rate constant, KD is the equilibrium dissociation constant or affinity constant), the resulting sensograms were processed according to the 1:1 interaction model using Global Fit (selection of one set of kon, kdis, KD constants to analyze several sensograms of different concentrations) of the ForteBio Octet Data Analysis 9.0 software.

B1: 02-005, bivalent bispecific chimeric antibody that specifically binds to PD1 and CD20 (bispecific antibody, human IgG1, kappa, L234A L235A)
heavy 1: EVQLVESGGGLVQPGGSLRLSCAASGYTFTSYNMHWVRQAPGKGLEWVGAIYPGNGDTSYNQKFKGRFTISVDKSKNTLYLQMNSLRAEDTAVYYCARVVYYSNSYWYFDVWGQGTLVTVSSASTKGPSVFPLAPSSKSTSGGTAALGCLVKDYFPEPVTVSWNSGALTSGVHTFPAVLQSSGLYSLSSVVTVPSSSLGTQTYICNVNHKPSNTKVDKRVEPKSCDKTHTCPPCPAPEAAGGPSVFLFPPKPKDTLYITREPEVTCVVVDVSHEDPEVKFNWYVDGVEVHNAKTKPREEQYNSTYRVVSVLTVLHQDWLNGKEYKCKVSNKALPAPIEKTISKAKGQPREPQVCTLPPSRDELTKNQVSLSCAVKGFYPSDIAVEWESNGQPENNYKTTPPVLDSDGSFFLVSKLTVDKSRWQQGNVFSCSVMHEALHNHYTQKSLSLSPGK
light 1: DIQMTQSPSSLSASVGDRVTITCRASSSVSYMHWYQQKPGKAPKPLIYAPSNLASGVPSRFSGSGSGTDFTLTISSLQPEDFATYYCQQWSFNPPTFGQGTKVEIKRTVAAPSVFIFPPSDEQLKSGTASVVCLLNNFYPREAKVQWKVDNALQSGNSQESVTEQDSKDSTYSLSSTLTLSKADYEKHKVYACEVTHQGLSSPVTKSFNRGEC
heavy 2: not shown
light 2: QPVLTQPLSVSVALGQTARITCGGNNIGSKNVHWYQQKPGQAPVLVIYRDSNRPSGIPERFSGSNSGNTATLTISRAQAGDEADYYCQVWDSSTAVFGTGTKLTVLQQRQVKPEAWLSSGPSPGPGRLQLVCHVSGFYPKPVWVMWMRGEQEQQGTQLGDILPNANWTWYLRATLDVADGEAAGLSCRVKHSSLEGQDIILYWRGSC
notes: Produced in CHO cells
Question: With B1 as the binder, how does the “Signal level (nm)” value [1] read?
Answer: -0.0194 nm

Question: What about the “Signal level (nm)” value [2] of the same binder?
Answer: -0.0057 nm

Question: Does B1 bind [3]?
Answer: no binding (tested: 757.6 nM)

Question: Does B1 bind [4]?
Answer: no binding (tested: 391.2 nM)

Question: What about the Kd [5] of the same binder?
Answer: 1120 nM

Question: And the koff [5]?
Answer: 0.342 s⁻¹

Question: And the kon [5]?
Answer: 305000 M⁻¹ s⁻¹

B2: 02-004, bivalent bispecific chimeric antibody that specifically binds to PD1 and CD20 (bispecific antibody, human IgG1, kappa, L234A L235A)
heavy 1: QVQLVQSGGGLVQPGGSLRLSCAASGFTFSSYWMYWVRQVPGKGLEWVSAIDTGGGRTYYADSVKGRFAISRVNAKNTMYLQMNSLRAEDTAVYYCARDEGGGTGWGVLKDWPYGLDAWGQGTLVTVSSASTKGPSVFPLAPSSKSTSGGTAALGCLVKDYFPEPVTVSWNSGALTSGVHTFPAVLQSSGLYSLSSVVTVPSSSLGTQTYICNVNHKPSNTKVDKRVEPKSCDKTHTCPPCPAPEAAGGPSVFLFPPKPKDTLYITREPEVTCVVVDVSHEDPEVKFNWYVDGVEVHNAKTKPREEQYNSTYRVVSVLTVLHQDWLNGKEYKCKVSNKALPAPIEKTISKAKGQPREPQVCTLPPSRDELTKNQVSLSCAVKGFYPSDIAVEWESNGQPENNYKTTPPVLDSDGSFFLVSKLTVDKSRWQQGNVFSCSVMHEALHNHYTQKSLSLSPGK
light 1: QPVLTQPLSVSVALGQTARITCGGNNIGSKNVHWYQQKPGQAPVLVIYRDSNRPSGIPERFSGSNSGNTATLTISRAQAGDEADYYCQVWDSSTAVFGTGTKLTVLQRTVAAPSVFIFPPSDEQLKSGTASVVCLLNNFYPREAKVQWKVDNALQSGNSQESVTEQDSKDSTYSLSSTLTLSKADYEKHKVYACEVTHQGLSSPVTKSFNRGEC
heavy 2: not shown
light 2: DIQMTQSPSSLSASVGDRVTITCRASSSVSYMHWYQQKPGKAPKPLIYAPSNLASGVPSRFSGSGSGTDFTLTISSLQPEDFATYYCQQWSFNPPTFGQGTKVEIKQRQVKPEAWLSSGPSPGPGRLQLVCHVSGFYPKPVWVMWMRGEQEQQGTQLGDILPNANWTWYLRATLDVADGEAAGLSCRVKHSSLEGQDIILYWRGSC
notes: Produced in CHO cells
Question: Which results are given for B2?
Answer: Signal level (nm) [1]: 0.0212 nm; Signal level (nm) [2]: 0.0102 nm; binding result [3]: no binding (tested: 757.6 nM); binding result [4]: no binding (tested: 391.2 nM); Kd [5]: 1270 nM; koff [5]: 0.238 s⁻¹; kon [5]: 188000 M⁻¹ s⁻¹
